Assay results taken from patent US20220380409A1.
Ends that are not written are not given here. Tz4 = ring closure through triazole, 4-carbon linker to triazole

Biological target: full-length Akt2 protein (Homo sapiens (Human)) (UniProt P31751)
Assay: affinity estimation from immunoassays capturing full-length Akt2 protein (FIG. 6D)

fold higher affinity than the corresponding linear peptide: 30 fold
B1: Cy(YYTYT (SEQ ID NO:4)-Tz4) (peptide)
peptide: YYTYT
modifications: triazole (positions not given here) via Tz4; also: ring closed via triazole between non-natural alkyne and azide residues flanking the sequence, variable region only, constant region not given here
